Among the data in patent publication US5705334 are activity (% inhibition of repair) values, retold here.

The test system of one data set is HMG1. Briefly: inhibition. As to conditions: cisplatin 1,2-d(GpG) intrastrand crosslink at a defined site; 1 uM protein; 20% at 0.5 uM; HeLa extract excinuclease, 30 C; EMSA also run at 1-8 uM but result not stated. (Mobility shift assays separate free from complexed probe on a gel.)
Data set [1] concerns h-mtTFA (human mitochondrial transcription factor A) (Homo sapiens). Kind of data set: inhibition. As to conditions: 1 uM protein, HeLa extract excinuclease, 30 C.

Regarding “156 bp DNA with site-specific cisplatin 1,2-d(GpG) intrastrand adduct”, the activity (% inhibition of repair) in the data set with HMG1 was found to be 40; in data set [1] (cisplatin 1,2-d(GpG) intrastrand crosslink at a defined site, 95% at 0.5 uM, 8 mM MgCl2, 2 mM ATP), 100. In turn, “156 bp DNA with site-specific cisplatin 1,3-d(GpTpG) intrastrand adduct” returned an activity (% inhibition of repair) in data set [1] (cisplatin 1,3-d(GpTpG) intrastrand crosslink at a defined site, 40% at 0.5 uM) of 75.
